What is called Kd is a measure of binding affinity in units of concentration. A lower Kd goes with tighter binding.

Results on three molecules are retold here after doi:10.1101/565937.

Common to all, as to assay: EMSA
(In general: Mobility shift assays separate free from complexed probe on a gel.)

In series [1] the target is T1, HuR (UniProt Q15717 1-326).
For the next series, the target named is AUF1p37 (Homo sapiens, UniProt Q14103-4 1-287).
Series [2] concerns the target T1, HuR. This is another data set of the same source.

T1 sequence (Q15717 whole entry): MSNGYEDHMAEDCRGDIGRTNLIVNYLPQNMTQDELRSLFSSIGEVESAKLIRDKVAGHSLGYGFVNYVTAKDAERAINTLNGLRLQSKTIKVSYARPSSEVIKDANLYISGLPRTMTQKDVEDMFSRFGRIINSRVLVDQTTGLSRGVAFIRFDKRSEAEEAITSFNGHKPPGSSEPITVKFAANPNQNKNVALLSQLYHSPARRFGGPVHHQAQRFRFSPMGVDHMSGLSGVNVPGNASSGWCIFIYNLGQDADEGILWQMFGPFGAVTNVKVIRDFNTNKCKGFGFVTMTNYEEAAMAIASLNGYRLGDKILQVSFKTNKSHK

Turning to AAAAAAAUUUUAAGAGCUGG (ssRNA) [Nrf2 3'-UTR Site 3], the figures for the Kd with HuR [1] and in the series with AUF1p37 were 75 ± 20 nM and 670 ± 82 nM, respectively.

AAAAACUUAUUUAUACUGUU (ssRNA) [Nrf2 3'-UTR Site 2] registered a dissociation constant (Kd) in the series with AUF1p37 of 25 ± 4 nM. Besides, the binding result with HuR [2] is reported as “no binding”.

For the molecule GCUAGUUUUUUUGUACUAUU (ssRNA) [Nrf2 3'-UTR Site 1], the results for the dissociation constant Kd in the series with HuR [1] and with AUF1p37 were 20 ± 5 nM and 6 ± 2 nM, respectively.
